Data as given in PMC10853514.

Biological target: human myosin VI heavy chain, full length, containing both the large-insertion (LI) and small-insertion (SI) regions (human) (UniProt Q9UM54)
Test: cryo-EM structure; single-particle cryo-EM of myosin VI/CaM in PB, TB + AMPPNP and PB + ATP, the three datasets combined; autoinhibited state, 3.54 Å (4.14 Å map with the SAH-E)

Chain of human myosin VI heavy chain, full length, containing both the large-insertion (LI) and small-insertion (SI) regions (human) (Q9UM54 other isoform, or with tags, fused parts or gaps): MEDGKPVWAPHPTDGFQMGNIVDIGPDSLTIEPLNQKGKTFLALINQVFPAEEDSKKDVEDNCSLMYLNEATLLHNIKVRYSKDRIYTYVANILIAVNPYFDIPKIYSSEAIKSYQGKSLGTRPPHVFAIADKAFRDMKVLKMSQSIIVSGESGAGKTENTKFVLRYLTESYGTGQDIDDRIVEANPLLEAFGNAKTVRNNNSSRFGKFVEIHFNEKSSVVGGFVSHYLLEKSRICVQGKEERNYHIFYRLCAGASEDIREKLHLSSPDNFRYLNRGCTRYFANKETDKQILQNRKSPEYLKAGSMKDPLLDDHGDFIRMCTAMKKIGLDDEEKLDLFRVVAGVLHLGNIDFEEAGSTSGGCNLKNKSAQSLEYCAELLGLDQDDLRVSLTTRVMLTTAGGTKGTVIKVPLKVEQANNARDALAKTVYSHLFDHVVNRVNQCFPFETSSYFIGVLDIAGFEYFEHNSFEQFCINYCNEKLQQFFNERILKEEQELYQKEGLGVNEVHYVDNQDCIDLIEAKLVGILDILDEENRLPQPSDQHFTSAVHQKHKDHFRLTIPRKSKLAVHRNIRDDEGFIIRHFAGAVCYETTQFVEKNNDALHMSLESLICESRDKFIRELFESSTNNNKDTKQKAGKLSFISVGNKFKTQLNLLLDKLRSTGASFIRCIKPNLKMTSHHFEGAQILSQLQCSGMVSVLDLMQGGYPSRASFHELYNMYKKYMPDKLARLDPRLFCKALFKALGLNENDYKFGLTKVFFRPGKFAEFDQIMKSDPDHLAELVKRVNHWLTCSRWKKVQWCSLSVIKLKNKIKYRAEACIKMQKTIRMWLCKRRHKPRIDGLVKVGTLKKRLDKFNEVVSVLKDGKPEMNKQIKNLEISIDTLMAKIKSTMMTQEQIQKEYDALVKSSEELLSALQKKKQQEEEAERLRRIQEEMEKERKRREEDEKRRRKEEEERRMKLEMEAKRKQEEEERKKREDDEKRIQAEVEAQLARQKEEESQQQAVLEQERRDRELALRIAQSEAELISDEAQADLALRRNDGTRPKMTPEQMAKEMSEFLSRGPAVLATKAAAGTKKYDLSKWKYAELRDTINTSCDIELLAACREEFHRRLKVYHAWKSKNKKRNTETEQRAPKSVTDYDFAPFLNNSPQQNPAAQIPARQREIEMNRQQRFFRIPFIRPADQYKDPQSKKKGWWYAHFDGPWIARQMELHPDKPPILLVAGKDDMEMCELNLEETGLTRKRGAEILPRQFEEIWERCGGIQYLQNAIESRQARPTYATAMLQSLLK

Q: Which stoichiometry N does the source give for “calmodulin (CaM), light chain of myosin VI (from UniProt P0DP23 1-149) (natural protein)” here?
A: 2
